Assay results: patent US9085636B2, “CETP fragments” (AFFIRIS AG, priority 2011, dated 2015)
No end group written: not given here.

Tests used:
[1] = system: respective peptides coupled to bovine serum albumin (BSA); assay: Peptide ELISA: anti-peptide titers of sera from vaccinated mice; format: in vivo; conditions: median values (n = 5); Balb/c mice s.c. three times 15 μg net peptide coupled to KLH, Alum; titre = serum dilution at 50% of ODmax
Experimental: (§1) The peptides were conjugated via the heterobifunctional linker GMBS (4-Maleimidobutyric acid N-hydroxysuccinimide ester) to KLH (Keyhole Limpet Hemocyanin).
(§2) 15 μg of the peptides were suspended with aluminum hydroxide (end concentration of aluminum hydroxide was 0.2%). As buffer mannitol/phosphate was used.
(§3) 5 Balb/c mice were subcutaneously immunized. Mice had access to food and water ad libitum and were kept under a 12 h light/dark cycle. Age of mice at the beginning of experiments was usually 8 to 10 weeks.
(§4) Mice were injected three times in 2 week intervals with 15 μg of net peptide coupled to KLH and adsorbed to Alum as adjuvant in a volume of 1 ml in total via the s.c. route.
(§5) Blood was taken approximately 2 weeks after the final injection.
(§6) To determine the immunogenicity of the vaccines, 96-well Nunc-Maxisorb plates were coated with 1 μM of the respective peptides coupled to bovine serum albumin (BSA) in 0.1 M NaHCO3, pH 9.2-9.4. An irrelevant peptide was used as negative control. KLH was included as positive control and coated at a concentration of 1 μg/ml. Unspecific binding was blocked by incubation with blocking buffer (5% BSA in PBS). Appropriate serum dilutions were added to the wells, serially diluted 1:2 fold and incubated for approximately 1 hour at 37° C. On every ELISA plate a standard serum was included as internal control. Bound antibodies were detected by incubation with biotinylated goat anti-mouse IgG, followed by horseradish peroxidase coupled to Streptavidin. As substrate ABTS was added and the optical density (OD) at 405 nm was measured in a Microwell plate-reader. The titres were defined as the dilution of the serum where 50% of the ODmax in the assay are reached.

[2] = biological target: T1, recombinantly expressed human CETP N-terminally fused to GST (GST-CETP) (Homo sapiens, UniProt P11597); assay: Protein ELISA: anti-protein titers of sera from vaccinated mice; format: in vivo, Balb/c mice; conditions: for anti-protein titers: median values (n = 5), Balb/c mice s.c. three times 15 μg net peptide coupled to KLH, Alum, GST-CETP ELISA, titre = serum dilution at 50% of ODmax
T1 construct: not only antibodies directed to the peptide itself but also to the mature CETP protein; GST (N); made in house
T1 sequence (P11597 18-493): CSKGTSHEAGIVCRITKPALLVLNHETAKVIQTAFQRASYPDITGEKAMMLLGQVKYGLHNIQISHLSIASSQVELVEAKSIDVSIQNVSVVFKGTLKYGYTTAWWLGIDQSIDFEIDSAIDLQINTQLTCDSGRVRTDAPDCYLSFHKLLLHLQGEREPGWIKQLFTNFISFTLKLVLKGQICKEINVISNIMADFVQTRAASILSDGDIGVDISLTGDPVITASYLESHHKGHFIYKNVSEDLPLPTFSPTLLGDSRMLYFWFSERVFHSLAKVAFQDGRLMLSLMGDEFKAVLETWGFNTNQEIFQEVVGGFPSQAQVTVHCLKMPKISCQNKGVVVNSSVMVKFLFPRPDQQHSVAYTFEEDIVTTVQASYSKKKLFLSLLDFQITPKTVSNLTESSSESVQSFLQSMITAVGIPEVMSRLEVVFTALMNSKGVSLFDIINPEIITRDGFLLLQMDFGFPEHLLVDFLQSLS
Experimental: as §1, §2, §3, §4, §5, §6
The antibodies induced by the vaccination were tested for their ability to bind to recombinantly expressed human CETP N-terminally fused to GST (“GST-CETP”) using the protocol described under “peptide ELISA”.

[3] = biological target: T2, CETP activity of human serum (Homo sapiens, UniProt P11597); assay: CETP activity inhibition assay (Roar kit) with sera from vaccinated mice; format: biochemical; conditions: n=5 mice per group; human serum as CETP source mixed with same amount of serum from vaccinated mice
T2 construct: Human serum was used as CETP source; from tissue; host or cells: human serum
T2 sequence (P11597 18-493): T1 sequence (P11597 18-493)
Experimental: as §3, §4, §5
CETP activity was determined with the Roar CETP activity assay kit (RB-CETP; Roar Biomedical) by measuring the transfer of a fluorescently labeled substrate according to the protocol provided by the manufacturer. […] Human serum was used as CETP source and was mixed with the same amount of serum from vaccinated mice together with donor and acceptor particles (components of the CETP activity assay kit).
Mouse sera containing CETP-inhibiting antibodies lead to a decrease of the signal in this assay. Sera from mice injected with irrelevant peptide served as negative control.

| Substance | anti-protein titers [2] | no. of mice with antibodies inhibiting CETP activity [3] | anti-peptide titers [1] | formation of antibodies directed to mature CETP protein (in words) ([2]; vaccinated Balb/c mice, protein ELISA) |
| --- | --- | --- | --- | --- |
| 4 (DEFKAVLETWG) [compound 4] | 0 |  | 140,000 |  |
| 1 (YTTAWWLGIDQS) [compound 1] | 800 | 3 of 5 | 70,000 |  |
| 19 (TTAWWLGID) [compound 19] | 1,300 | 3 of 5 | 114,000 |  |
| 18 (TTAWWLGIDQ) [compound 18] | 900 | 4 of 5 | 216,000 |  |
| 11 (WWLGIDQS) [compound 11] | 1,100 | 5 of 5 | 330,000 |  |
| C-YTTAWWLGIDQS (CYTTAWWLGIDQS; also: conjugated to KLH carrier) [SEQ ID No. 1, CETP fragment AA101-112, N-terminal cysteine, conjugated to KLH] |  |  |  | leads to the formation of not only antibodies directed to the peptide itself but also to the mature CETP protein |
| 6 (ESIQSFLQSMITA) [compound 6] | 0 |  | 69,000 |  |
| 3 (LHLQGEREPGWIKQ) [compound 3] | 50 |  | 97,000 |  |
| 2 (KAMMLLGQV) [compound 2] | 0 |  | 66,000 |  |

Continued, in another order:

| anti-protein titers [2] | no. of mice with antibodies inhibiting CETP activity [3] | Substance | anti-peptide titers [1] | formation of antibodies directed to mature CETP protein (in words) ([2]; vaccinated Balb/c mice, protein ELISA) |
| --- | --- | --- | --- | --- |
| 0 |  | 17 (YTTAWWL) [compound 17] | 94,000 |  |
| 2,200 | 4 of 5 | 9 (TAWWLGIDQS) [compound 9] | 173,000 |  |
| 0 |  | 22 (FPRPDQQHSV) [compound 22] | 229,000 |  |
| 1,200 | 1 of 5 | 13 (YTTAWWLGIDQ) [compound 13] | 143,000 |  |
| 0 |  | 12 (WLGIDQS) [compound 12] | 153,000 |  |
| 100 |  | 5 (GFNTNQEIFQEVVGGFP) [compound 5] | 100,000 |  |
| 1,700 | 5 of 5 | 10 (AWWLGIDQS) [compound 10] | 191,000 |  |
| 1,200 | 4 of 5 | 8 (TTAWWLGIDQS) [compound 8] | 89,000 |  |
| 300 | 0 of 5 | 15 (YTTAWWLGI) [compound 15] | 111,000 |  |
| 300 |  | 20 (TTAWWLGI) [compound 20] | 124,000 |  |
| 0 |  | 16 (YTTAWWLG) [compound 16] | 74,000 |  |
| 500 | 3 of 5 | 7 (YGYTTAWWLGIDQSID) [compound 7] | 33,000 |  |
| 600 | 1 of 5 | 14 (YTTAWWLGID) [compound 14] | 630,000 |  |
| 0 |  | 21 (TAWWLGI) [compound 21] | 99,000 |  |
